Test results as given in US20210032351A1 (XDCEXPLORER SHANGHAI, published 2021).

How the values were obtained:
[1] = target: T1, human EGFR protein (wild-type), on cells (human, UniProt P00533 25-1210); experiment: FACS on U87MG and HEB cells
T1 construct: whole, on cells; transfected on CHO-K1 cells; endogenous on the human cell lines; the cell is named under assay; also called wild-type EGFR; hEGFR
Description: The collected cells are suspended to 2×10⁶ cells/mL with an FACS buffer (HBSS+1% BSA, with the percentage being the mass percentage), added to a 96-well FACS reaction plate at 100 μL/well, then added with 100 μL/well of the purified EGFRvIII antibody (samples to be tested) obtained in example 2, and incubated on ice for 2 hours. The plate is centrifugally washed twice with the FACS buffer, added with 100 μL/well of a fluorescence (Alexa 488) labeled secondary antibody (purchased from Invitrogen), and then incubated on ice for 1 hour. The plate is centrifugally washed 3 times with the FACS buffer, added with 100 μL/well of a fixing solution [4% (v/v) paraformaldehyde] for suspending the cells, and centrifugally washed twice with the FACS buffer after 10 minutes. The cells are suspended in 100 μL of the FACS buffer, and the results are detected and analyzed by FACS (FACS Calibur, purchased from BD). Data analysis is performed by using the software (CellQuest) to obtain the mean fluorescence intensity (MFI) of the cells. Data is further analyzed by using the software (GraphPad Prism5) to perform data fitting and calculate EC50. […] A431 cells (human epidermal cell cancer cell lines) have a large amount of wild-type EGFR protein expressed on the surface thereof. […] U87MG cells (human glioma cell lines) have a small amount of wild-type EGFR protein expressed on the surface thereof, while HEB cells (human glioma cell lines) have a high level of wild-type EGFR protein expression on the surface thereof.

[2] = target: T2, human EGFRvIII-hFc protein (human, UniProt P00533 25-645); experiment: ELISA, coated EGFRvIII-hFc, antibody 1 nM
T2 construct: extracellular domain; made in HEK293 cells, purified on protein A; also called immunogen A; hFc-tagged EGFRvIII protein; not shown: human IgG Fc fragment (hFc) of the pCpC vector
Description: (§1) The purified immunogen A (EGFRvIII-hFc) obtained in example 1 (for the preparation method, see step (I) in example 1) is diluted with PBS to a final concentration of 1.0 μg/mL, and then added to a 96-well ELISA plate at 100 μl/well. The plate is sealed with a plastic film and incubated at 4° C. overnight. The next day, the plate is washed twice with a plate washing solution [PBS+0.01% (v/v) Tween20], and added with a blocking solution [PBS+0.01% (v/v) Tween20+1% (w/w) BSA] for blocking 2 hours at room temperature. The blocking solution is discarded, and the purified EGFRvIII antibody obtained in example 2 is added at 100 μl/well. The plate is incubated for 2 hours at 37° C., and then washed 3 times with the plate washing solution [PBS+0.01% (v/v) Tween20]. The plate is added with an HRP (horseradish peroxidase) labeled secondary antibody (purchased from Sigma), incubated at 37° C. for 2 hours, and then washed 3 times with the plate washing solution [PBS+0.01% (v/v) Tween20]. The plate is added with 100 μl of TMB substrate/well, incubated for 30 minutes at room temperature, and then added with 100 μl of stopping solution (1.0N HCl)/well. A450 nm value is read using an ELISA plate reader (SpectraMax 384plus, purchased from Molecular Device), and the results are shown in FIG. 6 and table 10.

[3] = target: T2, human EGFRvIII-hFc protein; experiment: ELISA, coated EGFRvIII-hFc, antibody 10 nM
Description: as §1

[4] = target: T2, human EGFRvIII-hFc protein; experiment: ELISA, coated EGFRvIII-hFc, antibody 0.1 nM
Description: as §1

[5] = target: T2, human EGFRvIII-hFc protein; experiment: ELISA, coated EGFRvIII-hFc, antibody 100 nM
Description: as §1

[6] = target: T2, human EGFRvIII-hFc protein; experiment: ELISA, coated EGFRvIII-hFc, antibody 0.01 nM
Description: as §1

[7] = target: T2, human EGFRvIII-hFc protein; experiment: ELISA, coated EGFRvIII-hFc, antibody 0.001 nM
Description: as §1

[8] = target: T2, human EGFRvIII-hFc protein; experiment: ELISA, coated EGFRvIII-hFc, antibody 0.0001 nM
Description: as §1

[9] = target: T3, human wild-type EGFR protein on the cell surface (human, UniProt P00533 25-1210); experiment: FACS on A431 tumor cells
T3 construct: whole, on cells; Endogenous on A431, HEB, U87MG cells and normal human primary hepatocytes; transfected on CHOk1-EGFR cells; The cell is named under assay; also called A431; HEB
Description: (§2) The preparation of U87MG-EGFRvIII required for FACS detection is as described in the preparation of the immunogen B in example 1. Normal human primary hepatocytes are purchased from BioreclamationIVT, and A431 tumor cells are purchased from ATCC. The recovered hepatocytes are directly used for FACS detection, and the recovered U87MG-EGFRvIII and A431 cells are subjected to an expanded culture to 90% confluence in a T-75 cell culture flask; the medium is sucked out, and the cells are washed twice with a HBSS buffer (Hanks Balanced Salt Solution) (purchased from Invitrogen), and then treated with an enzyme-free cell dissociation solution (Versene solution: purchased from Life Technology) and collected. The cells are washed twice with the HBSS buffer and are counted, and then the cells are diluted with the HBSS buffer to 2×10⁶ cells/ml, added with 1% goat serum blocking solution, with the percentage being the mass percentage, and incubated on ice for 30 minutes, and then centrifugally washed twice with the HBSS buffer. The collected cells are resuspended to 2×10⁶ cells/mL with an FACS buffer (HBSS+2% FBS, with the percentage being the volume percentage), added to a 96-well FACS reaction plate at 100 μL/well, then added with 100 μL/well of the purified EGFRvIII antibody (samples to be tested) obtained in example 12, and incubated on ice for 2 hours. The plate is centrifugally washed twice with the FACS buffer, added with 100 μL/well of a 1:1000 diluted fluorescence (Alexa 488) labeled secondary antibody (purchased from Invitrogen), and incubated on ice for 1 hour. The plate is centrifugally washed 3 times with the FACS buffer, added with 100 μL/well of a fixing solution [4% (v/v) paraformaldehyde] to resuspend the cells, and centrifugally washed twice with the FACS buffer after 10 minutes. The cells are resuspended in 100 μL of the FACS buffer, and the results are detected and analyzed by FACS (FACS Calibur, purchased from BD). Data analysis is performed by using the software (CellQuest) to obtain the mean fluorescence intensity (MFI) of the cells. Data is further analyzed by using the software (GraphPad Prism5) to perform data fitting and calculate EC50.

[10] = target: T4, human EGFRvIII-hFc protein (human, UniProt P00533 25-645); experiment: ELISA, EGFRvIII-hFc coated
T4 construct: extracellular domain; also called immunogen A; hFc-tagged EGFRvIII protein; not shown: human IgG Fc fragment (hFc) of the pCpC vector
Description: The purified humanized anti-EGFRvIII antibody obtained in example 12 is reacted with a human EGFRvIII-hFc protein.
as §1, with “The blocking solution is discarded, and the purified EGFRvIII antibody obtained in example 2 is added at 100 μl/well.” left out, “Device).” for “Device), and the results are shown in FIG. 6 and table 10.”

[11] = target: T5, human EGFRvIII protein on the cell surface (human, UniProt P00533 25-1210); experiment: FACS on U87MG-EGFRvIII cells
T5 construct: whole, on cells; the cell line is named under assay; also called hEGFRvIII; U87MG-hEGFRvIII
Description: as §2

[12] = target: T3, human wild-type EGFR protein on the …; experiment: FACS on normal human primary hepatocytes
Description: as §2

[13] = target: T3, human wild-type EGFR protein on the …; experiment: FACS, MFI on A431 cells over MFI on normal primary hepatocytes
Description: as §2

Binder	binding result [1]	OD450 nm [2]	OD450 nm [3]	OD450 nm [4]	OD450 nm [5]	OD450 nm [6]	OD450 nm [7]	OD450 nm [8]	MFI [9]	EC50 [10]	Maximum OD450 value [10]	EC50 [11]	Maximum mean fluorescence intensity [11]	MFI [12]	Selective window (MFI A431/Hepatocytes) [13]
Murine anti-49G12 (antibody, V domains shown, murine hybridoma antibody; also called 49G12G5) VH: EVQLLQSGAELVKPGASVKLSCTASGFNIKDYYMHWVKQRTEQGLEWIGRIDPEDGETKYAPKFQGKATMTADTSSNTAYLQLSSLTSEDTAVYYCASSAYYGRNYWGQGTTLTVSS VL: QIVLTQSPAIMSASPGEKVTLTCSASSSLSSSYLYWYQQKPGSSPKLWIYSTSNLASGVPARFSGSGSGTSYSLTISSMEAEDAASYFCHQWSSYPYTFGGGTKLEIK	no binding	3.2	3.8	0.64	3.79	0.14	0.13	0.08							
Humanized antibody h75G7C6-9 (antibody, human IgG1, V domains shown, also called VH-g1/VL-g0) VH: QVQLVQSGAEVKKPGASVKVSCKASGYTFTDYNMDWVRQAPGQGLEWIGDINPNNADTIYNQKFKGRVTLTVDTSTSTVYMELSSLRSEDTAVYYCARGDYDGYYPVYYAMDYWGQGTTVTVSS VL: EIVLTQSPATLSLSPGERATLSCRASSSVSSSYLHWYQQKPGQAPRLLIYSTSNLAAGIPARFSGSGSGTDFTLTISSLEPEDFAVYYCQQYSGYPLTFGGGTKVEIK									10700 MFI	0.58 nM	2.83 OD450	5.83 nM	18200 MFI	238 MFI	45 fold

Second part, the binder after the results:

binding result [1]	OD450 nm [2]	OD450 nm [3]	OD450 nm [4]	OD450 nm [5]	OD450 nm [6]	OD450 nm [7]	OD450 nm [8]	MFI [9]	EC50 [10]	Maximum OD450 value [10]	EC50 [11]	Maximum mean fluorescence intensity [11]	MFI [12]	Selective window (MFI A431/Hepatocytes) [13]	Binder
no binding	2.44	3.69	0.46	3.68	0.15	0.09	0.08								Murine anti-51G7 (antibody, V domains shown, murine hybridoma antibody; also called 51G7C2) VH: EVQLQQSGAELVKPGASVKLSCTASGFNIKDFYIHWVKQRTEQGLEWIGRIDPEDGETKYAPKFQDKATIIADTSSNTAYLQLSSLTSEDTAVYYCASSSYYGNNYWGQGTTLTVSS VL: QIVLTQSPAIMSASPGEKVTLTCSASSSVSSNYLYWYQQKPGSSPKLWIYSTSNLASGVPARFSGSGSGTSYSLTISSMEAEDAASYFCHQWSSFPYTFGGGTKLEIK
no binding	1.58	3.63	0.24	3.64	0.09	0.08	0.08								Murine anti-64B11 (antibody, V domains shown, murine hybridoma antibody; also called 64B11F2) VH: EVQLQQSGAELVKPGASVKLSCTASGFNIKDYYMHWVKQRTEQGLEWIGRIDPEDGETKYAPKFQGKATITADTSSNTAYLQLSNLPSEDTAVYYCGCRTGGFAYWGQGTLVTVSA VL: DILMTQSPSSMSVSLGDTVSITCHASQGINSNIGWLQQKPGKSFKALIYHGTNLEDGVPSRFSGSGSGADYSLTISSLESEDFADYYCVQYAQFPFTFGSGTELEIK
no binding	3.5	3.85	0.72	3.83	0.15	0.09	0.08								Murine anti-46C4 (antibody, V domains shown, murine hybridoma antibody; also called 46C4A6) VH: EVHLQQSVAELVRPGASVKLSCTASGFNIKNTYMHWVKQRPEQGLEWIGRIDPANGNTKYAPKFQGKATITADTSSNTAYLQLSSLTSEDTAIYYCASDFDYWGQGTTLTVSS VL: DVLMTQTPLSLPVSLGDQVSISCRSSQSIVNSNGNTHLEWYLQKPGQSPKVLIYKVSKRFSGVPDRFSGSGSGTDFTLKISRVEAEDLGVYYCFQGSHVPYTFGGGTKLEIK
